Data reported in patent US7977317B2, “Compositions and methods for modulating blood-brain barrier transport” (Raptor Pharmaceutical Inc., priority 2001, dated 2011).

Tests used:
[1] = tested on: astrocytes and astrocytoma cells; assay: Uptake of [125I]-p97 in rat astrocytes and astrocytoma cells; assay type: cell-based; conditions: 50 nM p97, 2 h at 37° C. (FIG. 24)
Procedure: FIG. 24. Uptake of p97 in rat astrocytes and astrocytoma cells. Cells were grown in monolayer in six-multiwell microplates at 37° C. under 5% CO2. Uptake of [^125I]-p97 was measured at 37° C. for 2 h in astrocytes and astrocytomas. The incubation medium contained [^125I]-p97 and a final concentration of 50 nM p97 in Ringer/Hepes solution. After incubation, the cell monolayer was washed three times with cold Ringer/Hepes solution. Triton X-100 0.1% was added and the [^125I]-p97 uptake was assessed in the Triton X-100 soluble fraction by TCA precipitation. Results represent means±SD (n=3, Astro; n=6, CTX and RG2; n=9, C6).
Uptake of [^125I]-p97. Cells were grown in monolayer in six-multiwell microplates at 37° C. under 5% CO2. Uptake of [^125I]-p97 was measured at 37° C. for 2 h in astrocytes and astrocytomas. The incubation medium contained [^125I]-p97 and a final concentration of 50 nM P97 in Ringer/Hepes solution. The uptake of [^125I]-p97 was performed in presence or in absence of 5 μM cold-P97. After incubation, the cell monolayer was wash three times with cold Ringer/Hepes solution. Triton X-100 0.1% was added and the [^125I]-p97 uptake was assessed in the Triton X-100 soluble fraction by TCA precipitation.

[2] = In situ brain perfusion with capillary depletion; assay type: in vivo; conditions: mice, 10 min perfusion
Procedure: FIG. 11 examines the accumulation and transcytosis of p97. FIG. 11a, of [^125I]-p97, [^125I]-BSA and [^125I]-holo-transferrin one hour after i.v. injection. The radioactivity in brain was compared between the three compounds. (n=3); FIG. 11b, Accumulation of p97 and transferrin into the mouse brain parenchyma. In situ brain perfusion was performed with human [^125I]-p97 or [^125I]-holo-transferrin at a final concentration of 10 nM via a catheter inserted in the right common carotid artery. The volume of distribution (VD) of [^125I]-proteins were obtained in the whole brain homogenate (white bars), in brain capillaries (solid bars) and in brain parenchyma (hatched bars) after isolation of the right hemisphere and capillary depletion. Results were obtained for p97 (n=10) and for holo-transferrin (n=6); FIG. 11c, Transcytosis of p97 across BBCEC monolayers. Transcytosis experiments were performed 37° C. (open circles) and 4° C. (closed circles) with BBCEC monolayers. […] Apical-to-basal and basal-to-apical transport of [^125I]-p97 (25 nM) was measured for 2 hrs at 37° C. At the end of the experiment, [^125I]-p97 was assessed in the lower or upper chambers of each well by TCA precipitation (n=4).
A. Brain uptake and in situ brain perfusion. […] The serum and brain samples were collected and the levels of radioactivity were measured. […]

mAb L235 = assay: BIAcore analysis of native and boiled p97 on immobilized mAb L235; assay type: physicochemical; conditions: in Ringer/Hepes solution, boiled 5 to 30 min (FIG. 13b)
Procedure: FIG. 13 illustrates the transcytosis and accumulation of p97 and transferrin in BBCEC monolayers. FIG. 13a, Transcytosis experiments were performed at 37° C. (solid bars) or 4° C. (white bars). [^125I]-p97 or bovine [^125I]-holo-transferrin (1 mg/ml) was added to the upper side of the cell-covered filter. At the end of the experiment, radiolabelled proteins were measured in the lower chamber of each well by TCA precipitation (n=4). Controls were also performed at 37° C. with denatured [^125I]-p97 or bovine [^125I]-holo-transferrin boiled for 30 min (grey bars) (n=2); FIG. 13b, Biospecific interaction analysis was performed with native or boiled p97 for the indicated times. MAb L235 (5 μg) was immobilized on a sensor chip (SM5) using standard procedures incorporating NHS, EDC and ethanolamine. Native and boiled p97 (5 to 30 min) diluted at 1 mg/ml in Ringer/Hepes was cooled and injected into the BIAcore. The surface plasmon resonance response obtained for native p97 and boiled p97 was plotted (in relative units (RU)) as a function of time; FIG. 13c, The accumulation of both proteins into BBEC cells were also measured. Briefly, after incubation at 37° C. (solid bars) or 4° C. […] Accumulation of both denatured proteins (grey bars) was also measured at 37° C. Filters were then removed, and the radioactivity associated with the cells was quantified (n=3). […]

B1: p97: recombinant human melanotransferrin (p97), provided by Synapse Technologies (protein, UniProt P08582 20-709, looked up)
Melanotransferrin: GMEVRWCATSDPEQHKCGNMSEAFREAGIQPSLLCVRGTSADHCVQLIAAQEADAITLDGGAIYEAGKEHGLKPVVGEVYDQEVGTSYYAVAVVRRSSHVTIDTLKGVKSCHTGINRTVGWNVPVGYLVESGRLSVMGCDVLKAVSDYFGGSCVPGAGETSYSESLCRLCRGDSSGEGVCDKSPLERYYDYSGAFRCLAEGAGDVAFVKHSTVLENTDGKTLPSWGQALLSQDFELLCRDGSRADVTEWRQCHLARVPAHAVVVRADTDGGLIFRLLNEGQRLFSHEGSSFQMFSSEAYGQKDLLFKDSTSELVPIATQTYEAWLGHEYLHAMKGLLCDPNRLPPYLRWCVLSTPEIQKCGDMAVAFRRQRLKPEIQCVSAKSPQHCMERIQAEQVDAVTLSGEDIYTAGKTYGLVPAAGEHYAPEDSSNSYYVVAVVRRDSSHAFTLDELRGKRSCHAGFGSPAGWDVPVGALIQRGFIRPKDCDVLTAVSEFFNASCVPVNNPKNYPSSLCALCVGDEQGRNKCVGNSQERYYGYRGAFRCLVENAGDVAFVRHTTVFDNTNGHNSEPWAAELRSEDYELLCPNGARAEVSQFAACNLAQIPPHAVMVRPDTNIFTVYGLLDKAQDLFGDDHNKNGFKMFDSSNYHGQDLLFKDATVRAVPVGEKTTYRGWLGLDYVAALEGMSSQQC
Specific uptake of p97 in astrocytoma cells over astrocytes [1]: greatly increased | Apparent VD of p97 in brain parenchyma relative to transferrin [2]: 8.8 fold | Apparent VD in the brain parenchyma ([2]; 10 nM [125I]-protein (FIG. 11b)): 17.2 ml/100 g | Resistance to heat denaturation (mAb L235): resistant to heat denaturation
